Kd data for one substance are collected here from article PMC3230118.

The target in the assay is Ub-NpuN fusion protein bearing the wild-type N-intein sequence (NpuNWT), C1A (not stated | Nostoc punctiforme) (UniProt P0CG48). As to the kind of experiment: other fluorescence titration.

“NpuC-SUMO fusion protein bearing the wild-type C-intein sequence (NpuCWT) (domain or fragment)”: the equilibrium dissociation constant (Kd) (as a rule, the constant that tells how readily two partners part at equilibrium) worked out at 2.9 nM.
